Test results published in the DeepSol protein solubility set.

test: soluble on expression in E. coli; label from the status in PepcDB or PDB records

Sequence | soluble on expression in E. coli
MSLKRLNCRRKGIRVRILAIDTSNQTLSIAVCENQKILGSYTATVKRNHSLTLMPAIDYLMSQLNLAPTAIDRFVVAEGPGSYTGLRLGVTTAKTLAYTLKKELVGISSLQTLAANCVGQTGLIVPLFDARRKNVYAGAYRFVNGVWQNELPDQHISLRELLEQLKNEPNLFFVGEDVEKFTEEIAQIIPHGEICDVPQWQIPNAAVLAALGSVAEPVENVHGFLPAYLKKVEAEENWLKTHTPNGESYVEKLEGHHHHHH | soluble
MSLKRVIGYIRVSTDNQDLERQRVLIRKYCENKGYSLLRIEEDYAISGTVSNRNGLNSILNITNSVADMVVVSELSRLSRQDDIFETLTQIHTIIRNVDLVILDEPDKVYEAGKTIILSDFLMLAIKAYGAADERKKIVSRMTTGKDSKVQAFPLMLTDSNIPTGFKAVPNPNYIKGATPKMLLVEDEERMQLVRDIFNYVANGLSLGKTAEKLNMLGYRTARNKPFYEQSIRTIINDSIYNGVRYWKGMKLELPVKFISDEIWNLAHKKVQENKNYSGEGHHHHHH | soluble
MSLKSDEVFAKIAKRLESIDPANRQVEHVYKFRITQGGKVVKNWVMDLKNVKLVESDDAAEATLTMEDDIMFAIGTGALPAKEAMAQDKMEVDGQVELIFLLEPFIASLK | soluble
MSLKSKGIKNLLIDLGGVLINLDRERCIENFKKIGFQNIEEKFCTHQLDGIFLQQEKGLITPAEFRDGIREMMGKMVSDKQIDAAWNSFLVDIPTYKLDLLLKLREKYVVYLLSNTNDIHWKWVCKNAFPYRTFKVEDYFEKTYLSYEMKMAKPEPEIFKAVTEDAGIDPKETFFIDDSEINCKVAQELGISTYTPKAGEDWSHLFRKEGHHHHHH | soluble
MSLKSKPVFRLVVAATGLCALPTWADGWPSWSPETAVVPYYFVSDSMGNTLGVAGLAKHVGQANASVLGTALYSDKGSYVTYLSATNYQVGDFWLLGAESYQGKFVDYDYYLGANASNDSTAADRTIATGKESITRFSFRYIVPWGHAAFRGARAALEPTRQIKGFSPDRSGITTIEFQPFHTSREINAIAGQDSDSSGLSLKLDWDNRNDVRNPTQGFRTRLDITYADENWGNDSDWLKYEYSSSGFWNLGGVDDLLDQQVFAFNFYIADTPTWNNCNTQTCQRPPEFDQVSLGGLYRLRSFSSGRFHGKSAINYSAEYRVLPKWQPLDDIPVLNIYDIPWWQWVAFVDMGRVSDESSFSELHSDMQWSAGGAVRFQVEGIVVRAEMAWGSEESLFRVMVNQEGHHHHHH | not soluble
MSLKSLEGSWCLVLGASSGIGRAIALGLAREGVHVAGVHFDTAARAEEVEALVEEIRSLGVEARFFNTNAASKATRAELVPQLAELTGANGGIRILVHSLAFGTLVPFTPREGWDRPISVRQLEMTLDVMAHSLVYWTQDLLAAGLLRSGSKVYAMTSAGTSQHLPSYGAVSAAKSALESHVRQLAAELATSGIAVNALRAGTTVTPALQRIPEHAGYIERAAENNPHGRLTRPDDVADAVALLSRTESSWLTGNTIGIDGGELHEGHHHHHH | soluble
MSLKSNVYYEELAKQNAIKTEFLPPVRGQITDRNGTLLAINDLGFSISIKPYLSIKKSNKGILDKELSELTNLFPDLNASKLAEIYKRNDSYYNQDFIKVVDFIPYDEIISHYSELNLNKTIKIDPVVKRKYPFGKLASHIIGYVGKANLQDVQENEIAKLSNYTGKSGIERYYNDILQGEKGTRVYKVNALNQEVEQLSYTPAMSNDIELTIDIELQSYLTSLFEGNAGAAIIMNVNDGSILAAGSFPEYDLNPFVTGISFKDWDELSNSLDHPFTNKLINGYYPPGSVVKMGVGLSFLNSKNISPSTHYVCNGSIELGGRFFRCWNRSGHGPVDLKHAIKYSCDVYFYNGSLQVGIDQISETLSRIGFGVKTGVDLPSEFVGTLPSKEWKMQRYRQSWFQGDTLNTAIGQGNFLATPMQIARYTAQIAKSGEVIPHFLKSIENNNTTIENQMDENKKEIFTLFEKSQLPYIRDAMYAVANEQGGTSYRYLHNLDVKVAAKTGTAQVVGFSQTDKNRVDEKQFEYYTRSHAWLTSYAPYSKPKYVVTVLLEHGGRNITSGATVAKIYQKMIELGYFKEGHHHHHH | soluble
MSLKTIAFDSNKYLNLQRDHILERISQFDGKLYMEFGGKMLEDYHAARVLPGYEPDNKIKLLKELKEQVEIVIAINANNIEHSKARGDLGISYDQEVFRLIDKFNTLDIYVGSVVITQYNNQPAADAFRKQLEKNGIASYLHYPIKGYPTDINHIISSEGMGKNDYIKTSRNLIVVTAPGPGSGKLATCMSQMYHDQINGVKSGYAKFETFPVWNLPLHHPVNLAYEAATADLDDVNMIDPFHLETYGKTAVNYNRDIEVFPVLNRTFERILSKSPYASPTDMGVNMVGFSIVNEEAAIEASKQEIIRRYYQTLVDFKAERVTESAVKKIELLMNDIGVTPDDRHVTVAAHQKAEQTGQPALALQLPNGQIVTGKTSGLFGPTAAVIINAIKTLAKIDKTTHLIEPEYVKPIQGLKVNHLGSHNPRLHSNEILIALAITAMTSEEANLAMKELGNLKGSEAHSTVILTEEDKNVLRKLGVNITFDPVYQHHKLYRKEGHHHHHH | soluble
MSLKTLMAVGLAAVMSIPFAANAADYVIDTKGAHASINFKVNHLGYSYIKGRFNKFDGEFSYDPANIAASSVVVNVDTRSLDSNHAERDKHIRSADFIDASKYSTATFKSTEVVDKGNGQLEVKGDLTLHGQTKPIVINAEFIGAGQDPWGGQRSGFAGTTRLELKDFGIQVMGASSYVDMELHVEGVQKEGGSHHHHHH | soluble
MSLKTTEYVAEILNELHNSAAYISNEEADQLADHILSSHQIFTAGAGRSGLMAKSFAMRLMHMGFNAHIVGEILTPPLAEGDLVIIGSGSGETKSLIHTAAKAKSLHGIVAALTINPESSIGKQADLIIRMPGSPKDQSNGSYKTIQPMGSLFEQTLLLFYDAVILKLMEKKGLDSETMFTHHANLEEGGSHHHHHH | soluble
MSLKTVVVIGGGITGLSTMFYLEKLKKDYNIDLNLILIEKEEYLGGKIHSVEEKDFIMESGADSIVARNEHVMPLVKDLNLEDEMVYNETGISYIYSENMLHPIPSDTIFGIPMSVQSLFSSTLVSTKGKIVALKDFITKNKEFTKDTSLALFLESFLGKELVERQIAPVLSGVYSGKLNELTMASTLPYLLDYKNKYGSIIKGFEENKKQFQSAGNKKFVSFKGGLSTIINRLEEVLTETVVKKGVITTAVSKQEDRYEISFANHETIQADYVVLAAPHDIAQTLLQSNELNEQFNTFKNSSLISIYLGFDILDEQLPADGTGFIVTENSDLHCDACTWTSRKWKHTSGKQKLLVRMFYKSTNPVYETIKNYSEEELVRVALYDIEKSLGIKGEPEVVEVTNWKDLMPKYHLEHNQAVQALQEKMTNLYPNVYLAGASYYGVGIGACIGNGKNIANEIMDTLNKEGHHHHHH | soluble
MSLKVEYFSDSSAVPHLHLENEDSYSVTDDLFIVADGVGSYEGSKDASRYAVNYLSKMAKEIQSKEQLVEEIIKLSEEIKSIGIISGRPLMSTTISVLKISTEKYITANVGDSPIVLLRSGKLYKLYIDDSERSSTGNRFALEQAFGWNHVIVHSFEGKLEKGDLFIICTDGVSDNLSDEYDLYSILRELDAQTIVRLALNKGIKPDDATIIKVYVTMAEGHHHHHH | soluble
MSLKVHHLNESRSQRILWLLEELSLPYEIVQHTRDAKTRLAPPSLTDVHPLGKSPVIQDGALVVIESGAIIDYIIRRHGGGRLAPDAASADYDRYQQWLHYAEGSAMLPLMLNMYVGRLGEAGAPLHPRIQSEIANHLAFVNDSLAGRDYFVGDSLTGADIQMSFVPEVAKAMGKLADYPHMAAWIGRMHARPAWKTALDKGGPYALGAEGHHHHHH | soluble
MSLKVIATDMDGTLLDARGQLDLPRLEKILDQLDQRGIRFVIATGNEIHRMRQLLSPLVDRVVLVVANGARIFENNELIQAQTWDDAIVNKALTHFKGRACQDQFVVTGMKGDFVKEGTIFTDLESFMTPEMIEKFYQRMQFVDELTSDLFGGVLKMSMVVGEERLSSVLEEINALFDGRVRAVSSGYGCIDILQAGIHKAWGLEELLKRWDLKSQEIMAFGDSENDVEMLEMAGIAYAMENADEKAKAVATALAPANSQGGVYQVLENWLEKGEGHHHHHH | soluble
MSLKVLIKTDLVLGAPKTLRDVYIGIDEGQIKVISKEKPEDYDYAEYVIGGKNRVVAPGFVTTHSFLYLYPFRYRVFSGKANAFQLMSTLTPNDIYYFSLMGAYHLLKTGVTTVVTSGPNLDMIARAISEVGLRPVLAVGVDCPDSKEDWEREFTTLYNRWSSKNENRVILRLCSNEYSKEVFELSQQYDFPVLLERFVSLENISGNPINVIGLGGGARKDLDIIKQKGFHLASTPSYEVSQFPLSQYKPSISLDLSPTFDIRHEVSTSITRLILTPEEALNAMTIWGLLQLKYNDRGVLENGKVADLVIFEVKEPPTFPLDYESPYESIVFNLSTPETVLVSGEAILDGGVPLNIGIKHIEKAIERLEDIDKKVTEGHHHHHH | soluble
MSLKVYITYGTADFLKTIVQKHPSENILLMQGQENAILIHETNGDTVFQAPHAYEVIDQVGEIKHPGFAVLNNIAVTQEGRPLFENRFKNRAGKVENEPGFEAIRVLRPLDSDTYVILTLWETESAFQDWQQSGSYKEAHKKRDTSAGIDTTSIFSRPSYVTTYFAVEEGGSHHHHHH | soluble
MSLKYAWIELHSRQWPVSLTCQVLGVSPSGYHARKARDVDTDRARRRISNDALLVHIKAVHAESKGEYGWPRVWKKLLAQGIRVSKDRVQQLMKLHGIRAKTKRRFKVTTDSNHSLPVAPDLLQRDFSPARPDQVWTMDITYIWTDEGWLFLTVILDLFSRQVVGWSMQPHMRTELVSDALRMAWFRRRPEAGLIVHSDRGSQYCSRDFQDLLKGYGMRSSMSRRGNCWDNAPTESLWGSLKRARILGQRFATRREAMDEVIDWLSFYNHSRLHSTLGYVSPMQFERDWYAAQNQRVAEGHHHHHH | not soluble
MSLKYIVVTGGVMSGLGKGITAASIGRLFVDMGYRVIPIKIDPYINIDAGTMNPFQHGEVYVLKDGTEVDLDLGHYERFIGEEVTGDHNITTGKIYKRVIEKERKGDYLGQTVQIIPHVTDEIKSWIRRVAKESNAEICLVEIGGTVGDIEGMPFLEAIRQMHNEEKEEDFALVHVTLVPLDAGGEQKTKPTQHSVKELRELGLHPDVIVGRCSERLKPATKKKIALFCDVPEEAVISNEDAEDIYEVPLIFKREKLDEYLMRKLNLRAKESRKEWEEMVKRMKTLYEEASIAIVGKYVDVRDAYLSIKEALKHGGIEAGCKVNIVWVDSEDLENVDDFTLDVDGILVPGGFGARGAEGKIRAIEYARENGVPFLGICFGFQLAVIEFARNVVGFSEANSTELDENTPHPVIDLLPEQKGIDEMGGTMRLGDIEVTIKPGTIAHKLYGSEKVVERHRHRYEVNPEYIEKIESKGLVFSAYSDGGRRMEIAELPDHPFFFATQFHPEFKSRPYRPSPPFVGFVRAALKYRREEEIEGHHHHHH | soluble
MSLKYLLLGMMLLGSFAASAGMDPQQLKQTIEQRLGVQVYLVDETPMPGLYMLGTAQGLLYTDARGDYVLQGTMLDLAHDMKNLTMLGLRQQRQLALAQIGERRVQLRAEQERHRVTLFTDLACSSCRTTLAELPVLQARGVSVQLLPVLGTFADLAEAQARWCDPRQFDALDLSDRLPETGCNEILAHHIGLSQWLGIKALPSWVLPNGDLVRGYQSPEQLLKILDHINAPANPSSEGHHHHHH | soluble
